Test results: patent publication EP4707304A1 (Axcynsis Therapeutics Pte. Ltd., dated 2024)

T1: VLP-hCLDN6 (human) (UniProt P56747)
T1 sequence: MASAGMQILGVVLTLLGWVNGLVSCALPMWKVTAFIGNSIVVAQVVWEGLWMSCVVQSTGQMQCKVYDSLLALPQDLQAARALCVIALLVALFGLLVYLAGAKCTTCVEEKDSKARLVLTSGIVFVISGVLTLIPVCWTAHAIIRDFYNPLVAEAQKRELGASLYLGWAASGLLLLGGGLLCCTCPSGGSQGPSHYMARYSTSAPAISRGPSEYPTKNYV

T2: VLP-hCLDN6 (human, UniProt P56747 1-220)
T2 construct: also called VLP-CLDN6; AT-003-ag1
T2 sequence: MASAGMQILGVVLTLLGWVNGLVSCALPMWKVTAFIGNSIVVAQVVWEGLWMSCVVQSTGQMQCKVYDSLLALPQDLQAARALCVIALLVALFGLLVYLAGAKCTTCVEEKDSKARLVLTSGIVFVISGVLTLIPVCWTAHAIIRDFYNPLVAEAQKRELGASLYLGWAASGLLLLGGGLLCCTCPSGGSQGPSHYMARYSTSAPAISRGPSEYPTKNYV


How the values were obtained:
VLP-hCLDN6 (human) [1] = target: T1, VLP-hCLDN6 (human); assay: ELISA, coated VLP-hCLDN6, 10 ul antibody sample (second well), HRP-Protein A
VLP-hCLDN6 (human) [2] = target: T1, VLP-hCLDN6 (human); assay: ELISA, coated VLP-hCLDN6, 10 ul antibody sample, HRP-Protein A
VLP-hCLDN6 (human) [3] = target: T1, VLP-hCLDN6 (human); assay: ELISA, coated VLP-hCLDN6, 100 ul antibody sample (second well), HRP-Protein A
VLP-hCLDN6 (human) [4] = target: T1, VLP-hCLDN6 (human); assay: ELISA, coated VLP-hCLDN6, 100 ul antibody sample, HRP-Protein A
VLP-hCLDN6 [5] = target: T2, VLP-hCLDN6; assay: ELISA, VLP-CLDN6 coated 400 ng/well, 4-fold serial dilution, HRP goat anti-human IgG Fc
VLP-hCLDN6 [6] = target: T2, VLP-hCLDN6; assay: ELISA on coated VLP-hCLDN6

| Binder | EC50 (VLP-hCLDN6 [6]) [nM] | further results |
| --- | --- | --- |
| humanized antibody hAb-24 (antibody, V domains shown) VH: EVKLVESGGGLVKPGGSLRLSCAASGFTFNSYTMSWVRQTPAKRLEWVVTISSGGGRTYYPDSVKGRFTISRDNARNTLYLQMSSLRAEDTAVYYCIRGDYRYDGFAYWGQGTLVTVSS VL: DIQMTQSPSSLSASVGDRVTITCRASENIDSYLAWYQQKPGKSPQLLVYASTLLQDGVPSRFSGSRSGTQFTLTISSLQPEDFATYYCQHYYSIPYTFGSGTKLEIK | – | OD450 (VLP-hCLDN6 (human) [1]): 1.34; OD450 (VLP-hCLDN6 (human) [2]): 1.45; OD450 (VLP-hCLDN6 (human) [3]): 1.87; OD450 (VLP-hCLDN6 (human) [4]): 1.94 |
| murine/human chimeric antibody cAb-2 (antibody, V domains shown, also called cAb-1 with S31E) VH: EVKLVESGGGLVKPGGSLKLSCAASGFTFNEYTMSWVRQTPAKRLEWVVTISSGGGRTYYPDSVKGRFTISRDNARNTLYLQMSSLRSEDTAMYYCIRGDYRYDGFAYWGQGTLVTVST VL: DIQMTQSPASLSASVGETVTITCRASENIDSYLAWYQQKQGKSPQLLVYASTLLVDGVPSRFSGSRSGTQFSLKINSLQSEDVARYYCQHYYSIPYTFGSGTKLEIK | – | EC50 (VLP-hCLDN6 [5]): 0.52 nM |
| humanized antibody hAb-25 (antibody, V domains shown) VH: EVKLVESGGGLVKPGGSLRLSCAASGFTFNSYTMSWVRQTPAKRLEWVVTISSGGGRTYYPDSVKGRFTISRDNARNTLYLQMSSLRAEDTAVYYCIRGDYRYDGFAYWGQGTLVTVSS VL: DIQMTQSPSSLSASVGDRVTITCRASENIDSYLAWYQQKPGKSPQLLVYASTLLVDGVPSRFSGSRSGTQFSLTISSLQPEDVARYYCQHYYSIPYTFGSGTKLEIK | – | OD450 (VLP-hCLDN6 (human) [1]): 1.7; OD450 (VLP-hCLDN6 (human) [2]): 1.69; OD450 (VLP-hCLDN6 (human) [3]): 2.24; OD450 (VLP-hCLDN6 (human) [4]): 2.05 |
| murine/human chimeric antibody cAb-18 (antibody, V domains shown, also called cAb-1 with G100K) VH: EVKLVESGGGLVKPGGSLKLSCAASGFTFNSYTMSWVRQTPAKRLEWVVTISSGGGRTYYPDSVKGRFTISRDNARNTLYLQMSSLRSEDTAMYYCIRGDYRYDKFAYWGQGTLVTVST VL: DIQMTQSPASLSASVGETVTITCRASENIDSYLAWYQQKQGKSPQLLVYASTLLVDGVPSRFSGSRSGTQFSLKINSLQSEDVARYYCQHYYSIPYTFGSGTKLEIK | – | EC50 (VLP-hCLDN6 [5]): 0.58 nM |
| humanized antibody hAb-29 (antibody, V domains shown, also called VH2VL4 with HC S31D) VH: EVKLVESGGGLVKPGGSLRLSCAASGFTFNDYTMSWVRQTPAKRLEWVVTISSGGGRTYYPDSVKGRFTISRDNAKNTLYLQMSSLRAEDTAVYYCIRGDYRYDGFAYWGQGTLVTVSS VL: DIQMTQSPSSLSASVGDRVTITCRASENIDSYLAWYQQKPGKSPQLLVYASTLLVDGVPSRFSGSRSGTQFSLTISSLQPEDVARYYCQHYYSIPYTFGSGTKLEIK | 0.29 | – |
| murine/human chimeric antibody cAb-1 (antibody, V domains shown, also called VH0/VL0) VH: EVKLVESGGGLVKPGGSLKLSCAASGFTFNSYTMSWVRQTPAKRLEWVVTISSGGGRTYYPDSVKGRFTISRDNARNTLYLQMSSLRSEDTAMYYCIRGDYRYDGFAYWGQGTLVTVST VL: DIQMTQSPASLSASVGETVTITCRASENIDSYLAWYQQKQGKSPQLLVYASTLLVDGVPSRFSGSRSGTQFSLKINSLQSEDVARYYCQHYYSIPYTFGSGTKLEIK | 0.59 | EC50 (VLP-hCLDN6 [5]): 0.59 nM |
| humanized antibody hAb-49 (antibody, V domains shown, also called VH8VL4) VH: EVQLVESGGGLVKPGGSLRLSCAASGFTFNDYTMSWVRQAPGKRLEWVVTISSGGGRTYYPDSVKGRFTISRDNAKNSLYLQMNSLRAEDTAVYYCIRGDYRYDAFAYWGQGTLVTVSS VL: DIQMTQSPSSLSASVGDRVTITCRASENIDSYLAWYQQKPGKSPQLLVYASTLLVDGVPSRFSGSRSGTQFSLTISSLQPEDVARYYCQHYYSIPYTFGSGTKLEIK | 0.07 | – |
| humanized antibody hAb-44 (antibody, V domains shown, also called VH6VL5) VH: EVKLVESGGGLVKPGGSLRLSCAASGFTFNDYTMSWVRQAPGKRLEWVVTISSGGGRTYYPDSVKGRFTISRDNAKNSLYLQMNSLRAEDTAVYYCIRGDYRYDAFAYWGQGTLVTVSS VL: DIQMTQSPSSLSASVGDRVTITCRASENIDSYLAWYQQKPGKSPQLLVYASTLLQDGVPSRFSGSRSGTDFTLTISSLQPEDVATYYCQHYYSIPYTFGSGTKLEIK | 6.67 | – |
| humanized antibody hAb-26 (antibody, V domains shown, also called VH2VL4 with HC S31Y) VH: EVKLVESGGGLVKPGGSLRLSCAASGFTFNYYTMSWVRQTPAKRLEWVVTISSGGGRTYYPDSVKGRFTISRDNAKNTLYLQMSSLRAEDTAVYYCIRGDYRYDGFAYWGQGTLVTVSS VL: DIQMTQSPSSLSASVGDRVTITCRASENIDSYLAWYQQKPGKSPQLLVYASTLLVDGVPSRFSGSRSGTQFSLTISSLQPEDVARYYCQHYYSIPYTFGSGTKLEIK | 0.1 | – |
| humanized antibody hAb-34 (antibody, V domains shown, also called VH2VL4 with HC S31D/G100A) VH: EVKLVESGGGLVKPGGSLRLSCAASGFTFNDYTMSWVRQTPAKRLEWVVTISSGGGRTYYPDSVKGRFTISRDNAKNTLYLQMSSLRAEDTAVYYCIRGDYRYDAFAYWGQGTLVTVSS VL: DIQMTQSPSSLSASVGDRVTITCRASENIDSYLAWYQQKPGKSPQLLVYASTLLVDGVPSRFSGSRSGTQFSLTISSLQPEDVARYYCQHYYSIPYTFGSGTKLEIK | 0.89 | – |
| humanized antibody hAb-48 (antibody, V domains shown, also called VH7VL4) VH: EVQLVESGGGLVKPGGSLRLSCAASGFTFNDYTMSWVRQAPGKRLEWVVTISSGGGRTYYPDSVKGRFTISRDNAKNTLYLQMSSLRAEDTAVYYCIRGDYRYDAFAYWGQGTLVTVSS VL: DIQMTQSPSSLSASVGDRVTITCRASENIDSYLAWYQQKPGKSPQLLVYASTLLVDGVPSRFSGSRSGTQFSLTISSLQPEDVARYYCQHYYSIPYTFGSGTKLEIK | 0.13 | – |
| humanized antibody hAb-28 (antibody, V domains shown, also called VH2VL4 with HC S31Q) VH: EVKLVESGGGLVKPGGSLRLSCAASGFTFNQYTMSWVRQTPAKRLEWVVTISSGGGRTYYPDSVKGRFTISRDNAKNTLYLQMSSLRAEDTAVYYCIRGDYRYDGFAYWGQGTLVTVSS VL: DIQMTQSPSSLSASVGDRVTITCRASENIDSYLAWYQQKPGKSPQLLVYASTLLVDGVPSRFSGSRSGTQFSLTISSLQPEDVARYYCQHYYSIPYTFGSGTKLEIK | 0.19 | – |
| humanized antibody hAb-47 (antibody, V domains shown, also called VH6VL4) VH: EVKLVESGGGLVKPGGSLRLSCAASGFTFNDYTMSWVRQAPGKRLEWVVTISSGGGRTYYPDSVKGRFTISRDNAKNSLYLQMNSLRAEDTAVYYCIRGDYRYDAFAYWGQGTLVTVSS VL: DIQMTQSPSSLSASVGDRVTITCRASENIDSYLAWYQQKPGKSPQLLVYASTLLVDGVPSRFSGSRSGTQFSLTISSLQPEDVARYYCQHYYSIPYTFGSGTKLEIK | 0.11 | – |
| humanized antibody hAb-30 (antibody, V domains shown, also called VH2VL4 with HC S31E) VH: EVKLVESGGGLVKPGGSLRLSCAASGFTFNEYTMSWVRQTPAKRLEWVVTISSGGGRTYYPDSVKGRFTISRDNAKNTLYLQMSSLRAEDTAVYYCIRGDYRYDGFAYWGQGTLVTVSS VL: DIQMTQSPSSLSASVGDRVTITCRASENIDSYLAWYQQKPGKSPQLLVYASTLLVDGVPSRFSGSRSGTQFSLTISSLQPEDVARYYCQHYYSIPYTFGSGTKLEIK | 0.29 | – |
| humanized antibody hAb-46 (antibody, V domains shown, also called VH8VL5) VH: EVQLVESGGGLVKPGGSLRLSCAASGFTFNDYTMSWVRQAPGKRLEWVVTISSGGGRTYYPDSVKGRFTISRDNAKNSLYLQMNSLRAEDTAVYYCIRGDYRYDAFAYWGQGTLVTVSS VL: DIQMTQSPSSLSASVGDRVTITCRASENIDSYLAWYQQKPGKSPQLLVYASTLLQDGVPSRFSGSRSGTDFTLTISSLQPEDVATYYCQHYYSIPYTFGSGTKLEIK | 6.55 | – |
| humanized antibody hAb-27 (antibody, V domains shown, also called VH2VL4 with HC S31M) VH: EVKLVESGGGLVKPGGSLRLSCAASGFTFNMYTMSWVRQTPAKRLEWVVTISSGGGRTYYPDSVKGRFTISRDNAKNTLYLQMSSLRAEDTAVYYCIRGDYRYDGFAYWGQGTLVTVSS VL: DIQMTQSPSSLSASVGDRVTITCRASENIDSYLAWYQQKPGKSPQLLVYASTLLVDGVPSRFSGSRSGTQFSLTISSLQPEDVARYYCQHYYSIPYTFGSGTKLEIK | 0.12 | – |
| humanized antibody hAb-33 (antibody, V domains shown, also called VH2VL4 with HC G100A) VH: EVKLVESGGGLVKPGGSLRLSCAASGFTFNSYTMSWVRQTPAKRLEWVVTISSGGGRTYYPDSVKGRFTISRDNAKNTLYLQMSSLRAEDTAVYYCIRGDYRYDAFAYWGQGTLVTVSS VL: DIQMTQSPSSLSASVGDRVTITCRASENIDSYLAWYQQKPGKSPQLLVYASTLLVDGVPSRFSGSRSGTQFSLTISSLQPEDVARYYCQHYYSIPYTFGSGTKLEIK | 0.31 | – |
| humanized antibody hAb-45 (antibody, V domains shown, also called VH7VL5) VH: EVQLVESGGGLVKPGGSLRLSCAASGFTFNDYTMSWVRQAPGKRLEWVVTISSGGGRTYYPDSVKGRFTISRDNAKNTLYLQMSSLRAEDTAVYYCIRGDYRYDAFAYWGQGTLVTVSS VL: DIQMTQSPSSLSASVGDRVTITCRASENIDSYLAWYQQKPGKSPQLLVYASTLLQDGVPSRFSGSRSGTDFTLTISSLQPEDVATYYCQHYYSIPYTFGSGTKLEIK | 4.84 | – |
| murine/human chimeric antibody cAb-3 (antibody, V domains shown, also called cAb-1 with S31D) VH: EVKLVESGGGLVKPGGSLKLSCAASGFTFNDYTMSWVRQTPAKRLEWVVTISSGGGRTYYPDSVKGRFTISRDNARNTLYLQMSSLRSEDTAMYYCIRGDYRYDGFAYWGQGTLVTVST VL: DIQMTQSPASLSASVGETVTITCRASENIDSYLAWYQQKQGKSPQLLVYASTLLVDGVPSRFSGSRSGTQFSLKINSLQSEDVARYYCQHYYSIPYTFGSGTKLEIK | – | EC50 (VLP-hCLDN6 [5]): 0.26 nM |
